Target: the molecule itself
Assay: cryo-EM structure; single particle cryo-EM of MscS in MSP1 E3D1 nanodiscs, POPC:POPG 4:1; 0.01% fluorinated octyl maltoside added; C7 symmetry in final refinement (the His-tagged sample also processed without symmetry, C1)

Protein	stoichiometry N	binding result
E. coli small-conductance mechanosensitive channel MscS with N-terminal 6xHis tag (natural protein, UniProt P0C0S1 1-286, looked up, Small-conductance mechanosensitive channel MscS, E. coli, full length; also called 6xHis-MscS-ND; MscS-ND; not shown: His6, N-terminal, kept) MEDLNVVDSINGAGSWLVANQALLLSYAVNIVAALAIIIVGLIIARMISNAVNRLMISRKIDATVADFLSALVRYGIIAFTLIAALGRVGVQTASVIAVLGAAGLAVGLALQGSLSNLAAGVLLVMFRPFRAGEYVDLGGVAGTVLSVQIFSTTMRTADGKIIVIPNGKIIAGNIINFSREPVRRNEFIIGVAYDSDIDQVKQILTNIIQSEDRILKDREMTVRLNELGASSINFVVRVWSNSGDLQNVYWDVLERIKREFDAAGISFPYPQMDVNFKRVKEDKAA	7	–
MscS-Cryst (Δ2–26 MscS) (natural protein, E. coli, UniProt P0C0S1 1-286, looked up, Small-conductance mechanosensitive channel MscS, E. coli, lacking the N-terminal anchor domain (residues 2-26 removed); The tag is surmised from the vector and from the statement that the purification was the same; also called MscS ∆2–27; MscS ∆1–27; source: E. coli MJF465 (pQE70), purified as the wild type, reconstituted in MSP1 E3D1 nanodiscs (POPC:POPG)) MYAVNIVAALAIIIVGLIIARMISNAVNRLMISRKIDATVADFLSALVRYGIIAFTLIAALGRVGVQTASVIAVLGAAGLAVGLALQGSLSNLAAGVLLVMFRPFRAGEYVDLGGVAGTVLSVQIFSTTMRTADGKIIVIPNGKIIAGNIINFSREPVRRNEFIIGVAYDSDIDQVKQILTNIIQSEDRILKDREMTVRLNELGASSINFVVRVWSNSGDLQNVYWDVLERIKREFDAAGISFPYPQMDVNFKRVKEDKAA	–	binds

Source: publication PMC7299334, “Molecular basis of force-from-lipids gating in the mechanosensitive channel MscS” (eLife, 2019)
